Reference: paper PMC8442553 (Science (New York, N.Y.), 2019)
Each block holds one binder with its values, some of them ahead of it.

What was measured:
Assay in all cases: cryo-EM structure
Sth1 = biological target: T1, Sth1 (yeast, UniProt P32597 1-1359)
T1 sequence: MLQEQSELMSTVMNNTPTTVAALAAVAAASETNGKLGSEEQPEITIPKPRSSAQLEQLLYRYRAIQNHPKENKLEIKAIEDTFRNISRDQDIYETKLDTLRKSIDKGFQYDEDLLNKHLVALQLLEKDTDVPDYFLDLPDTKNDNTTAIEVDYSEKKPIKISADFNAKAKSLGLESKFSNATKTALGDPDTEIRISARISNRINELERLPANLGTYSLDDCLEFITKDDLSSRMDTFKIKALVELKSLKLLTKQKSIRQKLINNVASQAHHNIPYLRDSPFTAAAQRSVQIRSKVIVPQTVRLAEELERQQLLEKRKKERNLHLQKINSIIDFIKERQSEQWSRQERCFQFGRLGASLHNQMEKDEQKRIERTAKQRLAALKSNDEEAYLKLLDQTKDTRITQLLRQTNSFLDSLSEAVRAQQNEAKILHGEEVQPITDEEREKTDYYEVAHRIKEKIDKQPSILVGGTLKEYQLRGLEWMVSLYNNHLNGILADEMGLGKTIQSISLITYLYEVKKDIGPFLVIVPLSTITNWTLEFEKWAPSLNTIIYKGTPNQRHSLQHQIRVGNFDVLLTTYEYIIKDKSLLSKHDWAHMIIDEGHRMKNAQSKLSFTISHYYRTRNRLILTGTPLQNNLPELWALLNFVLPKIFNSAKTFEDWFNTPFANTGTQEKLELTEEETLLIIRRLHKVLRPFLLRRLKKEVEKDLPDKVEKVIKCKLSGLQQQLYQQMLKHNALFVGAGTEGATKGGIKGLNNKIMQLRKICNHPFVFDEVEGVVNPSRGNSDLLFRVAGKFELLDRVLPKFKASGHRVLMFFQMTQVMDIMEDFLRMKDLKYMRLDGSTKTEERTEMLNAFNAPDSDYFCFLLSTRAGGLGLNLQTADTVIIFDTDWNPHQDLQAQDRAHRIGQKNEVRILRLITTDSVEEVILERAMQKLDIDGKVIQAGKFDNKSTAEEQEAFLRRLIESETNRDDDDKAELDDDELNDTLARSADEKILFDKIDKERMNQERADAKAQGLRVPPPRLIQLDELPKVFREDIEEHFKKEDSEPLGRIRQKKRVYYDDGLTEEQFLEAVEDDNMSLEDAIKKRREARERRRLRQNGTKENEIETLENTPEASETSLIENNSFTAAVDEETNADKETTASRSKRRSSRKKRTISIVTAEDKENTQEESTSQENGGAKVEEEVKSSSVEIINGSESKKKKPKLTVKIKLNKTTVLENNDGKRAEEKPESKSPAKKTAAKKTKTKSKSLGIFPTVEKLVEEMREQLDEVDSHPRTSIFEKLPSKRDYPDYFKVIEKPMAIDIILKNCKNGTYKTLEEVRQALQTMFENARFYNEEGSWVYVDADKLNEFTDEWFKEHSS

Rsc8 = biological target: T2, Rsc8 (yeast, UniProt P43609 1-557)
T2 sequence: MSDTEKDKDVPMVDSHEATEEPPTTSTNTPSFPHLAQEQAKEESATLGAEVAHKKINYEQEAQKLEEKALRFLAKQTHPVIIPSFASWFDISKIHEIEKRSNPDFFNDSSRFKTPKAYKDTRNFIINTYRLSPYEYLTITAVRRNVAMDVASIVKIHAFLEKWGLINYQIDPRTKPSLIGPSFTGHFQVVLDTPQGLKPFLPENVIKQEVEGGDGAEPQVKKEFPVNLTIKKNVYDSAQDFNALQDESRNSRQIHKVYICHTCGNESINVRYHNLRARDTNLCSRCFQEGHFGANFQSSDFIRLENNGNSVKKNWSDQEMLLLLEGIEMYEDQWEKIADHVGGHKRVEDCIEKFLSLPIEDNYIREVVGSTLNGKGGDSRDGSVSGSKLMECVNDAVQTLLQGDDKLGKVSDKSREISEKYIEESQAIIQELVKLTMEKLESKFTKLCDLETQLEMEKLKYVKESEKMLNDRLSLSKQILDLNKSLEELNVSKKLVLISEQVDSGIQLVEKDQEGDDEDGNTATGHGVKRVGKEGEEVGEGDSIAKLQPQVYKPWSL

Rsc3 = biological target: T3, Rsc3 (yeast, UniProt Q06639 1-885)
T3 sequence: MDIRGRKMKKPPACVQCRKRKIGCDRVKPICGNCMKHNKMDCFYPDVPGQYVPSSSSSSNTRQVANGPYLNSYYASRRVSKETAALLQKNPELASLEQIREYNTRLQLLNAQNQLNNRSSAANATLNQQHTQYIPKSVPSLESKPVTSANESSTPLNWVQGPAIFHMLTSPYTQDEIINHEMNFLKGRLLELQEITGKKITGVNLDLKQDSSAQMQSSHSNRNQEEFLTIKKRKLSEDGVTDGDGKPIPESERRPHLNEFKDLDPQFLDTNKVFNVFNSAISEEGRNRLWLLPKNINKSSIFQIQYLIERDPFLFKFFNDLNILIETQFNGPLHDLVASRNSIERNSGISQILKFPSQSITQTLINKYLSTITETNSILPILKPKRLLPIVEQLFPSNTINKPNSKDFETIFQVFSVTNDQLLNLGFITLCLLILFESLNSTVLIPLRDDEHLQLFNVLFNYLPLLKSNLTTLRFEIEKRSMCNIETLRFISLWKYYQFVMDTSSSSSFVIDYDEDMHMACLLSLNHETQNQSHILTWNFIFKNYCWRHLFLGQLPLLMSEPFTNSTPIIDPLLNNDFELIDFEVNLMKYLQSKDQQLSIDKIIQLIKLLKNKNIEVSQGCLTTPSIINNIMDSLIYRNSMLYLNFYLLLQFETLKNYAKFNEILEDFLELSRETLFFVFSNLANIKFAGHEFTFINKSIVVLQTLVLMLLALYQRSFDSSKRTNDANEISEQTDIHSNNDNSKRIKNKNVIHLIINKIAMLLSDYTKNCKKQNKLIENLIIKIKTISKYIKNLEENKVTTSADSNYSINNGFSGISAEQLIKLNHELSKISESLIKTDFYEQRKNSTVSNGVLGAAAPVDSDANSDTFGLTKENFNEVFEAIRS

- binding result (Sth1): binds
- binding result (Rsc8): binds
B1: Rsc58 (natural protein, yeast)
chain: MTESVGGNKLVDFLVNVQSILNAASVKCHVVDESFPAKFFEKNPDKIYESYCKFIKNRSNSEGLIRNEDKLVLTTINKRFENGEYEPIQGGFYKLYHDIKLVCTILIHFYPQGTRNYQLVDKFYKFSSELLLRECCRIGIALTQTNNIKSRSGKLLSGNEMDEYDDDDATELDKIISYDFIKISMNYTVPISQTYQIRTKDMDLFSSIISKSNLDKRPHELPNTNFKINNVLPQTDIENEAPRLGFVGANTSNIPDPTLPPTEMMTRFLHPNWYALPTTVWLKYGNYNSWAPSFNENGTVVDSTTRGLIWLERIGYMDLYEKNEKKVKQEELLNTNEEGINRKQNDENNKNVDGKSNGVQDDGGDNDNDATIASANSESTENKEQFIIKLQNLYNWTPSNYIGDDEIENFRNGTPDKLVSDSLLKLKRLRKERILNKVLKPTTEERELYFKVKRILKEVILAKKVSKVPINNVRAFPVLQTNYNGSIPVVRAQPGRKRKHKK

- binding result (Rsc8): binds
B2: Htl1 (natural protein, yeast)
chain: MSQNNTISSMNPERAYNNVTLKNLTAFQLLSQRENICELLNLVESTERHNSIINPERQRMSLEEMKKMLDALKNERKK

- binding result (Rsc3): binds
B3: Rsc30 (natural protein, yeast)
chain: MMDMQVRKVRKPPACTQCRKRKIGCDRAKPICGNCVKYNKPDCFYPDGPGKMVAVPSASGMSTHGNGQGSNHFSQGNGVNQKNVMIQTQYPIMQTSIEAFNFSFNPSVDTAMQWTKAASYQNNNTNNNTAPRQNSSTVSSNVHGNTIVRSDSPDVPSMDQIREYNTRLQLVNAQSFDYTDNPYSFNVGINQDSAVFDLMTSPFTQEEVLIKEIDFLKNKLLDLQSLQLKSLKEKSNLNADNTTANKINKTGENSKKGKVDGKRAGFDHQTSRTSQSSQKYFTALTITDVQSLVQVKPLKDTPNYLFTKNFIIFRDHYLFKFYNILHDICHINQFKVSPPNNKNHQQYMEVCKVNFPPKAIIIETLNSESLNNLNIEEFLPIFDKTLLLEFVHNSFPNGDTCPSFSTVDLPLSQLTKLGELTVLLLLLNDSMTLFNKQAINNHVSALMNNLRLIRSQITLINLEYYDQETIKFIAITKFYESLYMHDDHKSSLDEDLSCLLSFQIKDFKLFHFLKKMYYSRHSLLGQSSFMVPAAENLSPIPASIDTNDIPLIANDLKLLETQAKLINILQGVPFYLPVNLTKIESLLETLTMGVSNTVDLYFHDNEVRKEWKDTLNFINTIVYTNFFLFVQNESSLSMAVQHSSNNNKTSNSERCAKDLMKIISNMHIFYSITFNFIFPIKSIKSFSSGNNRFHSNGKEFLFANHFIEILQNFIAITFAIFQRCEVILYDEFYKNLSNEEINVQLLLIHDKILEILKKIEIIVSFLRDEMNSNGSFKSIKGFNKVLNLIKYMLRFSKKKQNFARNSDNNNVTDYSQSAKNKNVLLKFPVSELNRIYLKFKEISDFLMEREVVQRSIIIDKDLESDNLGITTANFNDFYDAFYN

- binding result (Sth1): binds
B4: Arp9 (natural protein, yeast)
chain: MAPFRQDSILIIYPRSQTTLVQFGLNEETFTVPELEIPTQIYRTTRQDGSYTYHSTNKDNKAELIKPIQNGEIIDISAFTQFLRLIFVSILSDRANKNQDAFEAELSNIPLLLITHHSWSQSDLEIITQYVFESLEINNLIQLPASLAATYSMISLQNCCIIDVGTHHTDIIPIVDYAQLDHLVSSIPMGGQSINDSLKKLLPQWDDDQIESLKKSPIFEVLSDDAKKLSSFDFGNENEDEDEGTLNVAEIITSGRDTREVLEERERGQKVKNVKNSDLEFNTFWDEKGNEIKVGKQRFQGCNNLIKNISNRVGLTLDNIDDINKAKAVWENIIIVGGTTSISGFKEALLGQLLKDHLIIEPEEEKSKREEEAKSVLPAATKKKSKFMTNSTAFVPTIEYVQCPTVIKLAKYPDYFPEWKKSGYSEIIFLGAQIVSKQIFTHPKDTFYITREKYNMKGPAALWDVQF

- binding result (Sth1): binds
B5: Arp7 (natural protein, yeast)
chain: MTLNRKCVVIHNGSHRTVAGFSNVELPQCIIPSSYIKRTDEGGEAEFIFGTYNMIDAAAEKRNGDEVYTLVDSQGLPYNWDALEMQWRYLYDTQLKVSPEELPLVITMPATNGKPDMAILERYYELAFDKLNVPVFQIVIEPLAIALSMGKSSAFVIDIGASGCNVTPIIDGIVVKNAVVRSKFGGDFLDFQVHERLAPLIKEENDMENMADEQKRSTDVWYEASTWIQQFKSTMLQVSEKDLFELERYYKEQADIYAKQQEQLKQMDQQLQYTALTGSPNNPLVQKKNFLFKPLNKTLTLDLKECYQFAEYLFKPQLISDKFSPEDGLGPLMAKSVKKAGASINSMKANTSTNPNGLGTSHINTNVGDNNSTASSSNISPEQVYSLLLTNVIITGSTSLIEGMEQRIIKELSIRFPQYKLTTFANQVMMDRKIQGWLGALTMANLPSWSLGKWYSKEDYETLKRDRKQSQATNATN

- binding result (Rsc8): binds
B6: Rsc7 (natural protein, yeast)
chain: MSDSEGGLASEVEHEKRSRSTSNRPNYAIDTEDLDIDENDENEDDDYREEEANEGVNEEEISDEEEQINKSGRNKRRHVDEEEDLSEDKGVTRSRNRSKFKKPVFPGIDDAEENLNPLKVVNEEYVLPDDPEGETKITADGDLLGGREFLVRTFTLTEKGNRKFMLATEPARIVGFRDSYLFFQTHPNLYKFILNQTQKNDLIDRGVLPYSYRNRQIALVTARGVFKEFGAKIIRGGKHITDDYYASELRTKGNVIEGKLAGDPIDKSARALETMMYPASENGINPAKNQVEFFEHRPHGHMSNSNIIASGSKLSSTNWLYQHSAACSRFNSDLFYDRVKVLLVDQQGLRDAYTNILHIPESTQSTTVLGWRRSKNDSPSDTSIVYETVIHDNDLNKPKTGLSEIPKEIYEDVVDEDVLRAITEQQNFEKCNEYI

- binding result (Sth1): binds
B7: Rtt102 (natural protein, yeast)
chain: MDPQTLITKANKVSYYGNPTSKESWRYDWYQPSKVSSNVQQPQQQLGDMENNLEKYPFRYKTWLRNQEDEKNLQRESCEDILDLKEFDRRILKKSLMTSHTKGDTSKATGAPSANQGDEALSVDDIRGAVGNSEAIPGLSAGVNNDNTKESKDVKMN
